Molecular target: T1, Myc-tagged NLRP6 (ΔPYD)
T1 chain: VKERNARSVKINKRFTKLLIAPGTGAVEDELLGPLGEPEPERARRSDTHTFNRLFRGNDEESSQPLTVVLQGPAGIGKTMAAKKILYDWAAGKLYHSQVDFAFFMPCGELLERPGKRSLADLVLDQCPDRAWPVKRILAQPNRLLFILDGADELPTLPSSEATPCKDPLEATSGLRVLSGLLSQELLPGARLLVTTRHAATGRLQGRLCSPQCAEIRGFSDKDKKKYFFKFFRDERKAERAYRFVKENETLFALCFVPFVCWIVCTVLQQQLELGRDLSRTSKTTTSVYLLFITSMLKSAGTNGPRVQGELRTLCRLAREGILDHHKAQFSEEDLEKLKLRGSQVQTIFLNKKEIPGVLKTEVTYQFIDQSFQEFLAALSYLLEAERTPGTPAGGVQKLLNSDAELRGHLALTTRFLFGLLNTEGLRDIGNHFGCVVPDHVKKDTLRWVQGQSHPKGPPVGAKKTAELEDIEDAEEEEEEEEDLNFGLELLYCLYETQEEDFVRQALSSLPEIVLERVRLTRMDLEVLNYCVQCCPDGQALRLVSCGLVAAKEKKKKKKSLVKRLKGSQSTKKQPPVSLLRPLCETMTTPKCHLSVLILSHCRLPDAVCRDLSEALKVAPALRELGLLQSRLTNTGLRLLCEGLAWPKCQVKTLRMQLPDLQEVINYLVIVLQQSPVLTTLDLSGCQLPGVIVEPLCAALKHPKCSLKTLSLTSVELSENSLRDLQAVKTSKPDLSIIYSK

Kd: 88 nM
B1: FLAG-tagged iTie (natural protein)
chain: MGVFQILMKNKELIPLAFFISVAATGATSFALYALKKTDVVIDRKRNPEPWEMVDPTQPQKLITINQQWKPVEELQKVRRATR
